Legend:
[1] = target: hACE2 on human bronchial epithelial Calu-3 cells (human) (UniProt Q9BYF1)
[2] = target: recombinant hACE2-AviTag protein from 293T cells (Acro Biosystems) (human) (UniProt Q9BYF1); assay: SPR, hACE2-AviTag captured on chip, spike construct as analyte

“S-Ecto-eGFP (other; other documents disagree on this pair)” was tested, and the fold median GFP fluorescence intensity (MFI) over GFP-His tag control [1] was 2.6 fold and the Kd [2] was 55.1 nM.

Source: patent US20220339279A1, “RECOMBINANT PROTEINS, COMPOSITIONS, VECTORS, KITS, AND METHODS FOR […], AND TESTING FOR EXPOSURE TO, SEVERE ACUTE RESPIRATORY SYNDROME CORONAVIRUS 2” (Board of Regents of the University of Nebraska, priority 2021, published 2022)
